Numbering of substitutions follows the chain as printed.
B1: HuMab-CD74-011 (antibody, human IgG1, V domains shown)
VH: QVQLVESGGGVVQPGRSLRLSCAASGFTFSSYGMHWVRQAPDKGLEWVAVIWYDGSNKYYADSVKGRFTISRDNSKNTLYLQMNSLRAEDTAVYYCARGGTLVRGAMYGTDVWGQGTTVTVSS
VL: DIQMTQSPSSLSASVGDRVTITCRASQGISSWLAWYQQKPEKAPKSLIYAASSLQSGVPSRFSGSGSGTDFTLTISSLQPEDFATYYCQQYNSYPLTFGGGTKVEIK
notes: Human IgG1,kappa antibody produced transiently in HEK-293F cells; also called antibody 011
B2: HuMab-CD74-006 (antibody, human IgG1, V domains shown)
VH: QVQLVESGGGVVQPGRSLRLSCAASGFTFSSYAMHWVRQAPGKGLEWVAVISYDGSIKYYADSVKGRFTISRDNSKNTLYLQMNSLRVEDTAVFYCARGREITSQNIVILLDYWGQGTLVTVTS
VL: B1 VL
notes: Human IgG1,kappa antibody produced transiently in HEK-293F cells; also called antibody 006
B3: HuMab-CD74-011-vcMMAE (antibody, IgG1, V domains shown)
VH: B1 VH
VL: B1 VL
modifications: drug-linker vcMMAE alkylated to the cysteines of the reduced antibody (DAR 3.8-3.9)
notes: Antibody-drug conjugate of HuMab-CD74-011 (IgG1,kappa); also called vcMMAE-conjugated HuMab-CD74-011
B4: HuMab-CD74-011-mcMMAF (antibody, IgG1, V domains shown)
VH: B1 VH
VL: B1 VL
modifications: drug-linker mcMMAF alkylated to the cysteines of the reduced antibody (DAR 3.9 by HIC)
notes: Antibody-drug conjugate of HuMab-CD74-011 (IgG1,kappa)
B5: HuMab-CD74-006-mcMMAF (antibody, IgG1, V domains shown)
VH: B2 VH
VL: B1 VL
modifications: drug-linker mcMMAF alkylated to the cysteines of the reduced antibody (DAR 3.7-4.1)
notes: Antibody-drug conjugate of HuMab-CD74-006 (IgG1,kappa)
B6: HuMab-CD74-005-mcMMAF (antibody, IgG1, V domains shown)
VH: QVQLVESGGGVVQPGRSLRLSCAASGFTFSSYAMHWVRQAPGKGLEWVAVISYDGSNKYYADSVKGRFTISRDNSKNTLYLQMNSLRAEDTAVYYCASGRYYGSGSYSSYFDYWGQGTLVTVSS
VL: B1 VL with Y36F
modifications: drug-linker mcMMAF alkylated to the cysteines of the reduced antibody (DAR 3.9-4.0)
notes: Antibody-drug conjugate of HuMab-CD74-005 (IgG1,kappa); also called mcMMAF-conjugate of HuMab-CD74-005
B7: HuMab-CD74-006-vcMMAE (antibody, IgG1, V domains shown)
VH: B2 VH
VL: B1 VL
modifications: drug-linker vcMMAE alkylated to the cysteines of the reduced antibody (DAR 4.0)
notes: Antibody-drug conjugate of HuMab-CD74-006 (IgG1,kappa); also called vcMMAE-conjugated HuMab-CD74-006
B8: HuMab-CD74-005-vcMMAE (antibody, IgG1, V domains shown)
VH: B6 VH
VL: B1 VL with Y36F
modifications: drug-linker vcMMAE alkylated to the cysteines of the reduced antibody (DAR 3.9-4.0)
notes: Antibody-drug conjugate of HuMab-CD74-005 (IgG1,kappa); also called vcMMAE-conjugate of HuMab-CD74-005
B9: HuMab-CD74-005 (antibody, human IgG1, V domains shown)
VH: B6 VH
VL: B1 VL with Y36F
notes: Human IgG1,kappa; produced transiently in HEK-293F cells; also called antibody 005
B10: HuMab-CD74-008 (antibody, V domains shown)
VH: B2 VH with I57N, V88A, F94Y, T123S
VL: B1 VL
notes: Human IgG,kappa antibody (HuMab) produced transiently in HEK-293F cells; also called antibody 008

target: human CD74, naturally expressed on cells (Raji, Daudi, M4A4, NCI-H747 cells; human tonsil tissue) (human) (UniProt P04233); assay: FACS on Raji cells

Molecule	EC50 [µg/mL]
B1	0.151
B2	0.196

target: human CD74, naturally expressed on cells (Raji, Daudi, M4A4, NCI-H747 cells; human tonsil tissue) (human) (UniProt P04233); assay: cell-based or functional assay

Molecule	% viability (minimal) of Raji cells, anti-kappa-ETA' assay [%]	% kill of Daudi cells at 10 µg/mL [%]	% kill of M4A4 cells at 10 µg/mL [%]	% kill of NCI-H747 cells at 10 µg/mL [%]	% kill of Raji cells at 10 µg/mL [%]	IC50 of killing of Daudi cells [µg/mL]	IC50 of killing of M4A4 cells [µg/mL]	IC50 of killing of NCI-H747 cells [µg/mL]	IC50 of killing of Raji cells [µg/mL]	EC50 of killing of Raji cells, anti-kappa-ETA' assay [µg/mL]
IgG1-b12 (antibody)	85.9									
B3		86	100	40	89	0.02	0.32	7.91	0.04	
B4		92	96	17	92	0.01	0.1		0.01	
B5		93	97	21	93	0.01	0.12		0.01	
B6		90	97	5	92	0.03	0.38		0.05	
B7		85	100	49	90	0.03	0.28	6.12	0.05	
B2	1.5									57
B8		85	100	41	88	0.08	0.56	7.48	0.11	

target: human CD74, naturally expressed on cells (Raji, Daudi, M4A4, NCI-H747 cells; human tonsil tissue) (human) (UniProt P04233); assay: FACS on Daudi cells; mean of three experiments

Molecule	EC50 [µg/mL]
B1	0.05
B3	0.05
B4	0.05
B9	1.27
B5	0.03
B6	1.05
B7	0.03
B2	0.04
B8	0.26

target: human CD74, naturally expressed on cells (Raji, Daudi, M4A4, NCI-H747 cells; human tonsil tissue) (human) (UniProt P04233); assay: FACS on Daudi cells, 10 µg/mL; mean of three experiments

Molecule	Maximal binding (MFI at 10 µg/mL) [MFI]
B1	5780
B3	3790
B4	5330
B9	2780
B5	4050
B6	2530
B7	3280
B2	4600
B8	2860

target: T1, HisCD74v1 (recombinant extracellular domain of human CD74 variant 1, N-terminal hexameric His tag) (human, UniProt P04233 73-296); assay: ELISA, coated recombinant CD74v1 extracellular domain
T1 construct: also called recombinant CD74v1; CD74v1 extracellular domain
T1 sequence: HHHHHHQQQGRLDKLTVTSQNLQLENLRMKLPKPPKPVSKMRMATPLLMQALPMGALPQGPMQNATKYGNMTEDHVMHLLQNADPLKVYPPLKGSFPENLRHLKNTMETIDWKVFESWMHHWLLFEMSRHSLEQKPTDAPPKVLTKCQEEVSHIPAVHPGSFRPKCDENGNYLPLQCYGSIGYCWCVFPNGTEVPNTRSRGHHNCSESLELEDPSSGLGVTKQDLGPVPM
Description: (§1) ELISA plates (Greiner BioOne) were coated 0/N at 4° C. with 2 μg/mL, 100 μL per well, recombinant CD74v1 or CD74v2 in PBS (B. Braun Melsungen AG). Sequences and production of the isoforms were described supra. ELISA wells were washed three times with PBS containing 0.05% Tween-20 (PBST), emptied, and blocked with 1% (w/v) BSA fraction V (Roche) in PBS at RT for 1 h while shaking (300 rpm), and emptied. Subsequently, 100 μL anti-CD74 HuMab antibodies were added in serial dilutions in 0.2% (w/v) BSA fraction V in PBST (assay buffer) and incubated while shaking at RT for 90 min. ELISA plates were washed three times with PBST, emptied, and bound HuMab antibodies were detected using HRP-conjugated goat-anti human IgG (100 μL; 1:5,000; Peroxidase Affinipure Goat anti-human IgG, F(ab′)2 Fragment Specific [min X Bov,Hrs,Ms Sr Prot]; Jackson Immunoresearch) in assay buffer and incubated while shaking at RT for 90 min. Plates were washed three times with PBST, emptied, and incubated with 100 μL ABTS solution (50 ml ABTS buffer [Roche] and one ABTS tablet [50 mg; Roche]). After incubation in the dark at RT for 30 min, the reaction was stopped by addition of 100 μL per well oxalic acid (2% [w/v]). Plates were measured at OD 405 nm in an ELISA reader (Biotek Instruments, EL808 Absorbance Microplate Reader).
(§2) Isotype control Ab IgG1-b12 was used as a negative control. Binding curves were analyzed using non-linear regression (sigmoidal dose-response with variable slope) using GraphPad Prism 5 software (GraphPad Software, San Diego, Calif., USA).

Molecule	EC50 [µg/mL]
B10	1.39
B1	0.344
B2	0.321

target: T2, HisCD74v2 (recombinant extracellular domain of human CD74 variant 2, N-terminal hexameric His tag) (human, UniProt P04233 73-296); assay: ELISA, coated recombinant CD74v2 extracellular domain
T2 construct: also called recombinant CD74v2; CD74v2 extracellular domain
T2 sequence: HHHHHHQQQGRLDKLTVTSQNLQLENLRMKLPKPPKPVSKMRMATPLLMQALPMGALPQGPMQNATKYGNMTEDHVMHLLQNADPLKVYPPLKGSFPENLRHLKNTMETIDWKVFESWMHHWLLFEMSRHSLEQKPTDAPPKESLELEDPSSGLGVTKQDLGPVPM
Description: as §1, §2

Molecule	EC50 [µg/mL]
B10	0.759
B1	0.245
B2	0.21

target: human CD74, naturally expressed on cells (Raji, Daudi, M4A4, NCI-H747 cells; human tonsil tissue) (human) (UniProt P04233); assay: FACS on Daudi cells at 0° C., Alexa-488-labeled antibody displaced by excess unlabeled antibody

Molecule	koff [s⁻¹]	time until half of the bound labeled antibody was replaced [min]
B10	0.00333	4
B1	0.00117	10
B2	0.004	3

target: T1, HisCD74v1 (recombinant extracellular …); assay: ELISA, coated recombinant CD74v1 extracellular domain (CD74ECDHis); mean of four experiments
Description: ELISA plates (Greiner BioOne) were coated with 2 μg/mL, 100 μL per well, recombinant CD74ECDHis in PBS (B. Braun Melsungen AG) at 4° C., 0/N. ELISA plates were emptied and blocked with 200 μL/well PBS containing 0.05% Tween-20 (PBST) while shaking (300 rpm), at RT for 1 hour, washed three times with 300 μL PBST and emptied. Subsequently, 100 μL anti-CD74 ADCs or unconjugated CD74-specific HuMab antibodies were added in serial dilutions in PBST and incubated while shaking at RT for 2 hours. ELISA plates were washed with PBST and emptied. Bound anti-CD74 ADCs and unconjugated HuMab antibodies were detected by addition of HRP-conjugated mouse-anti human IgG1 (100 μL; 0.015 μg/mL; Sanquin; # M1328) in PBST and incubation while shaking, at RT for 2 hours. Plates were washed with PBST, emptied and incubated with 100 μL ABTS solution (50 ml ABTS buffer [Roche] and one ABTS tablet [50 mg; Roche]). After incubation in the dark while shaking, at RT for 30 min, the reaction was stopped by incubation with 100 μL per well oxalic acid (2% [w/v]; Riedel de Haen) in the dark while shaking, for 10 min. Plates were measured at OD 405 nm in an ELISA reader (Biotek Instruments, EL808 Absorbance Microplate Reader).
IgG1-b12, an antibody binding to a non-related antigen, was used as a negative control (both unconjugated as well as in ADC format). Binding curves were analyzed by non-linear regression (sigmoidal dose-response with variable slope) using GraphPad Prism 5 software (GraphPad Software, San Diego, Calif., USA).

Molecule	EC50 [µg/mL]
B1	0.02
B3	0.03
B4	0.02
B9	0.03
B5	0.02
B6	0.04
B7	0.03
B2	0.02
B8	0.04

From patent publication US20170173151A1 (Genmab, published 2017)
